Measurements taken from WO2016092096A1 (dated 2016).

How the values were obtained:
[1] = biological target: T1, VIM carbapenemase (Pseudomonas aeruginosa (strain ATCC …, UniProt A0A0F7KYQ8 21-266)); experiment: sandwich on ArrayTube array as in Example 2; cell supernatant denatured 10 min at 99°C
T1 construct: The antigen in the assays came from VIM-positive strains or from supernatants of expressing cells

[2] = biological target: T2, OXA-48 carbapenemase (Klebsiella pneumoniae, UniProt Q6XEC0 23-265); experiment: sandwich on ArrayTube array, 1461 capture and biotin-labelled 1281 detector, cultivated cells of clinical strains
T2 sequence (Q6XEC0 23-265 limits assumed): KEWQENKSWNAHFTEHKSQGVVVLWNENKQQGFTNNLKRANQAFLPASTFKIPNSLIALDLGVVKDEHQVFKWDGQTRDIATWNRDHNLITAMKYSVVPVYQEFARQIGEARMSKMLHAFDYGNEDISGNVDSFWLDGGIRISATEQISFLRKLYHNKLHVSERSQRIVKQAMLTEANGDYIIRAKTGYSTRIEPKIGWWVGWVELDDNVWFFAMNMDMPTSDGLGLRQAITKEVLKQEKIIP

[3] = biological target: T3, NDM carbapenemase (Klebsiella pneumoniae, UniProt C7C422 29-270); experiment: sandwich on ArrayTube array as in Example 2; cell supernatant denatured 10 min at 99°C
T3 construct: The antigen in the assays came from NDM-positive strains or from supernatants of expressing cells
T3 sequence (C7C422 29-270 limits assumed): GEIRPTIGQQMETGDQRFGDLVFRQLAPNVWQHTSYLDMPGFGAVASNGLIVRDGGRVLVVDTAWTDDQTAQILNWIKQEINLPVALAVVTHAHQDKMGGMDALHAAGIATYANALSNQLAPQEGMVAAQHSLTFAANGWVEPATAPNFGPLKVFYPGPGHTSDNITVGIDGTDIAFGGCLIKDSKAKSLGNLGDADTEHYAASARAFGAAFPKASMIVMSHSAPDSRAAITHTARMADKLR

[4] = biological target: T2, OXA-48 carbapenemase; experiment: as above

Binder	binding result [1]	binding result [3]	also measured
antibody 1721 (SEQ ID Nos: 19 and 23), detector antibody for VIM (antibody, V domains shown, The detector is labelled with biotin) VH: QVQLQQPGSVLVRPGTSVKLSCKASGYTFTSYWMHWVKQRPGQGLEWIGEIYPNSGKTNYNEKFKGKATLTVDTSSSTAYVALNSLTSEDSAVYYCAKRYSLYDFTLDYWGQGTSVTVSS VL: DIKMTQSPKSMSMSVGERVTLTCKASENVGTFVSWYQQKLDQSPKLLIYGASKRYTGVPDRFTGSGSATDFTLAISSVQAEDLADYHCGQSFSYPLTFGAGTKLELKR	binds	–	–
anti-OXA-48 antibody 1461 (antibody, V domains shown, Used as capture antibody spotted on the array) VH: QVQLKQSGAELGRPGSSVKLSCKTSGYKFKSYGINWVKQRPGQGLEWIGYIYPGSGYIEYNEKFQGEATLTSDTSSSTAYMQLRSLTSEDSAIYFCGRLGDGYFFYAMDYWGQGTSVTVSS VL: QIVLTQSPTTMAASPGEKITITCSASSSISSNYMHWYQQKPGFSPKLLIYRTSNLGSGVPVRFSGSGSGTSYSLTIGTMEAEDVATYYCQQGSSIPFTFGSGTKLEIKR	–	–	binding result [2]: binds
anti-VIM antibody 1071 (antibody, V domains shown, It was selected from a phage display Fab library; Used as capture antibody) VH: QVKLQQSGPELARPGASVKLSCKASGYTFRSYGITWVKQRTGQGLEWIGEIYPESNISYYNEKFKGTATLTTDKSSSTAYMQLSSLTSEDSAVYFCARRDYDGSYIYWGQGTTLTVSS VL: QIVLTQSPTTMAASPGENITITCSASSSISSNFLHGYQQKPGFSPKLLIYRTSNLASGVPTRFSGSGSGTSYSLTIGTMEAEDVATYYCQQGDSLPRTFGGGTKLEIKR	binds	–	–
anti-NDM antibody 1041 (antibody, V domains shown, It was selected from a phage display Fab library; Used as capture antibody) VH: QVQLKQSGAELARPGASVKLSCKASGYTFRGYGISWVKQRTGQGLEWIGEIYPGSGNTHYNEKFKGKATLTADKSSSTAYMQLSSLTTEDSAVYFCADLGSWFANWGQGTLVTVSA VL: DIVLTQSPATLSVTPGDSVSLSCRASQSIYNNLHWYQQKSHESPRLLIKYASQSISGIPSRFSGSGSGTDFTLSINSVETEDFGMYFCQQSNSWPYTFGAGTKLELKR	–	binds	–
anti-NDM antibody 1121 (antibody, V domains shown, Used as detector antibody, labelled with biotin) VH: QVQLQQSEADLVRPGSSVKISCKASGYAFSNSWINWVKQRPGQGLEWIGQINPGDGNTKYNGKFKGKVILTADKSSSTAYMQLSSLTSEDSAVYFCERETPLWSFVYWGRGTLVTVSA VL: not shown	–	binds	–
anti-OXA-48 antibody 1281 (antibody, V domains shown, It was selected from a phage display Fab library) VH: DVQLQQSGPEMVKPGASVKISCKAFGYTFSDYYMYWVKQSHGKSLEWIGRVNGNNGDTRYNQKFEGKATLTVDKSSSTAYMELNSLTSEDSAVYYCARGDYLAYWGQGTTLTVSS VL: NIVLTQSPASLAVSLGQRASISCRAIKSVDSYGTSFMHWYQQKPGQPPKLLIYRASNLESGIPARFSGSGSRTDFTLTINPVEADDVATYYCHQSNEAPYTFGGGTKLEIKR	–	–	binding result [4]: binds
